From patent publication US7423017B2, “Method for treating cartilage disorders” (Genentech, Inc., priority 1997, dated 2008)
Marks after values point to notes of the source that are not given here. Starred links: 1 amine or outer side, 2 acyl side, 3 side chain; linkers in the order of their positions; H or OH if unused. Positions of bridges follow the written chain, without caps; N, C: chain ends. Residues, ends and D or L forms follow the SMILES beside them. No end group written: not given here. Suc = O=C(CCC(=O)[*:2])[*:1]

Columns and labels:
[1] = test system: human articular cartilage explants; test: human articular cartilage explants from diseased joints: matrix synthesis (35S-sulfate uptake); format: cell-based; settings: for matrix synthesis in diseased human articular cartilage: 40 ng/ml
Protocol: The metacarpophalangeal joint of a six-month old pig was cultured as described above for bovine articular cartilage in Example 8. This explant was cultured in media alone or in media with D12K, D12R, or wild-type IGF-1 (at 10 nM) alone or in the presence of IL-1α at 1 ng/ml, as described above. Human explants were from patients undergoing joint replacement surgery. Articular cartilage was harvested, aliquoted (40-45 mg/tube) and cultured as above. […] Fresh media was added on days 0, 1, 2, and 3. Matrix breakdown was determined by measuring the amount of proteoglycans in the media using the DMMB assay as set forth above. Matrix (proteoglycan) synthesis was determined by measuring ^35S-sulfate uptake as set forth above.
Human articular cartilage explants were cultured in media or treated with IGF-1 by itself or in combination with either BP3-40 or BP3-15 at 0.1 mg/ml as set forth above. Matrix breakdown was determined by measuring the release of proteoglycans into media as described above. Matrix synthesis was determined by counting the amount of ^35S-sulfate incorporated into the cartilage tissue as described above.
The same Material and Methods (for human tissue) were used as described above, using articular cartilage explants from human joints removed from patients undergoing joint replacement. These explants were cultured with IGF-1 alone at 40 ng/ml, or IGF-1 with BP1-17, BP3-15, or BP1-16 (0.1 mg/ml), or IGF-1 with buffer (HEPES).

IGFBP-1 [2] = molecular target: T1, IGFBP-1 (Homo sapiens, UniProt P08833); test: BIACORE kinetics: IGFBP-1 binding to immobilized IGF-1 variants; parameters: made in house; host or cells: CHO cells; settings: for Binding to IGFBP-1 ka: 25 C; for Binding to IGFBP-1 KD: kd/ka
T1 sequence (P08833 26-259): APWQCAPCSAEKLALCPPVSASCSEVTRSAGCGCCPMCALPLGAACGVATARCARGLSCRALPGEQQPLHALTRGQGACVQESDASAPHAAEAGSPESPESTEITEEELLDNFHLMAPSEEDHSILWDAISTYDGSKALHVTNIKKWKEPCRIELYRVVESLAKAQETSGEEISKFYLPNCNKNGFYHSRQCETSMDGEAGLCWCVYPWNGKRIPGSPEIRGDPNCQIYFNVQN
Protocol: (§1) The binding affinities of the IGF variants for IGFBP-1 and IGFBP-3 were determined using a BIACORE™-2000 real time kinetic interaction analysis system (Biacore, Inc., Piscataway, N.J.) to measure association (ka) and dissociation (kd) rates. Carboxymethylated dextran biosensor chips (CM5, BIAcore Inc.) were activated with EDC (N-ethyl-N′-(3-dimethylaminopropyl)-carbodiimide hydrochloride) and NHS(N-hydroxysuccinimide) according to the supplier's instructions. For immobilization, IGF mutants in 20 mM sodium acetate, pH 4.8, were injected onto the biosensor chip at a concentration of 50 μg/ml to yield approximately 450-600 RU's (resonance-responce units) of covalently-coupled protein. Unreacted groups were blocked with an injection of 1 M ethanolamine. Kinetic measurements were carried out by injecting two-fold serial dilutions (starting at 1 μM) of either IGFBP-1 or IGFBP-3 in running buffer (PBS, 0.05% TWEEN 20™, 0.1% ovalbumin, 0.1% sodium azide) at 25 °C using a flow rate of 20 μl/min. Association rates (ka) and dissociation rates (kd) were calculated separately using a 1:1 Langmuir™ association model in the BIACORE™ evaluation software v. 3.0. The equilibrium dissociation constant (KD) was calculated as kd/ka.
(§2) For measurements of IGFBP-1 binding to IGF-1, kinetics experiments were conducted using a single-cysteine IGF-1 variant, Y31C, that was immobilized onto the sensor chip surface via a disulfide linkage (BIACORE™ System Manual Supplement, 5a-1, Pharmacia (1991)).

IGFBP-1 [3] = test: as above; parameters: species or system human; settings: from relative KD values
Protocol: as §1, §2

IGFBP-3 [4] = molecular target: T2, IGFBP-3 (Homo sapiens, UniProt P17936); test: BIACORE kinetics: IGFBP-3 binding to immobilized IGF-1 variants; settings: for Binding to IGFBP-3 ka: 25 C; for Binding to IGFBP-3 KD: kd/ka
T2 construct: made in house
Protocol: as §1

IGFBP-1 [5] = molecular target: T1, IGFBP-1; test: competitive phage ELISA of IGF-1 mutants, IGFBP-1; format: binding; parameters: made in house; host or cells: CHO cells; settings: phage display, soluble IGFBP-1 competitor
Protocol: (§3) An alanine-scanning mutagenesis approach (Cunningham and Wells, Science, 244: 1081-1085 (1989); U.S. Pat. No. 5,834,250) was used to remove that portion of each side chain of IGF-1 beyond the beta carbon. The contribution of these atoms to the free energy of binding of the IGF-1 analog to IGFBP-1 or to IGFBP-3 was then assessed by competitive phage ELISA. In this assay, IGFBP-1 or IGFBP-3 is used to inhibit IGF-phage mutants from binding to an IGFBP-1- or IGFBP-3-coated immunosorbant plate.
(§4) Immunosorbent plates (Nunc, MAXISORP™, 96 wells) were coated with 100 μl/well of 1 μg/ml IGFBP-1 or IGFBP-3 in PBS buffer pH 7.2 at 4° C. overnight. The plates were then blocked with 0.5% TWEEN 20™/PBS (also used as binding buffer) for 2 hours at room temperature (proteinaceous blocking agents like bovine serum albumin were avoided to prevent potential IGF or IGFBP contamination). E. coli cells (XL1-Blue, Stratagene) freshly transformed with phagemid vector were grown overnight in 5 mL 2YT medium (Sambrook et al., supra) in the presence of M13-VCS helper phage (Stratagene). Phage particles were harvested and resuspended in PBS buffer as described in Lowman, H. B., “Phage Display of Peptide Libraries on Protein Scaffolds,” in Cabilly, S. (ed.), Combinatorial Peptide Library Protocols (Humana Press Inc.: Totowa, N.J., 1998), pp. 249-264. Then phage concentrations were normalized to yield a maximal ELISA signal of 0.2-0.4 for each mutant (Lowman, in Cabilly, S. (ed.), supra). Threefold serial dilutions of soluble competitor were prepared on non-absorbent microtiter plates (Nunc, F, 96 wells) with binding buffer (0.5% TWEEN 20™/PBS) containing phage at the previously determined concentrations. The dilution range of competitor protein extended over six orders of magnitude, starting at 5 μM for IGFBP-1 and 500 nM for IGFBP-3. After blocking, the plates containing immobilized target were washed with 0.05% TWEEN™/PBS buffer and subsequently incubated with 80 μl/well of the premixed phage-competitor solutions for 1 hour at room temperature. After washing, bound phage was detected with 80 μl/well of a solution containing a primary rabbit anti-phage polyclonal antibody and a secondary goat anti-rabbit monoclonal antibody-horseradish peroxidase conjugate in 0.5% TWEEN 20™/PBS. o-Phenylenediamine (Sigma) and tetramethylbenzidine (Kirkegaard and Perry) were used as chromogenic substrates, resulting in product detection at 492 and 450 nm, respectively. IC50 values were determined by fitting the binding data to a generic saturation curve (Lowman, in Cabilly, S. (ed.), supra). At least two individual clones of each IGF-1 mutant were assayed. Numbers in Table XIII represent mean±standard deviation of individually assessed IC50 values.

IGFBP-3 [6] = molecular target: T2, IGFBP-3; test: competitive phage ELISA of IGF-1 mutants, IGFBP-3; format: binding; settings: phage display, soluble IGFBP-3 competitor
Protocol: as §3, §4

IGFBP-1 [7] = test: competitive phage ELISA of IGF-1 mutants, IGFBP-1; format: binding, human; settings: relative IC50 IGFBP-1/relative IC50 IGFBP-3
Protocol: as §3, §4

[8] = blood clearance, pharmacokinetics and tissue distribution of radiolabeled IGF-1 variants, IV in rats; format: in vivo, rat; settings: single IV dose in rats
IGFBP-3 [9] = molecular target: T2, IGFBP-3; test: BIACORE competition assay: IGFBP-3 binding to immobilized IGF-1
Protocol: IGF-1 was immobilized on a dextran chip for inhibition assays using a BIACORE™ 2000 surface-plasmon-resonance device (BIAcore, Inc., Piscataway, N.J.) to measure free binding protein. IGF-1 was biotinylated as described above, and injected over a chip to which streptavidin had been coupled (BIAcore, Inc.) to give 400 to 800 RU (response units) of immobilized IGF-1. […] Serial dilutions of peptide were mixed with a constant concentration (40 nM) of IGFBP-3. After incubation for >1 hour at room temperature, an aliquot of 20 μL was injected at a flow rate of 20 μL/min over the IGF-1 chip. Following the injection, a response reading was taken to measure the relative amount of IGFBP-3 bound to the IGF-1.

T2 sequence (P17936 28-291): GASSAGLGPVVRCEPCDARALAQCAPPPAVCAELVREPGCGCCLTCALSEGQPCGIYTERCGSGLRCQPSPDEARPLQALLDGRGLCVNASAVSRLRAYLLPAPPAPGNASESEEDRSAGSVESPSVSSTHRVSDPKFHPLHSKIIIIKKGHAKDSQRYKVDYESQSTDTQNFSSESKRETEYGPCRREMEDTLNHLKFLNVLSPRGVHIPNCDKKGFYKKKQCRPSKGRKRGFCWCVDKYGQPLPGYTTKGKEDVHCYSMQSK

Molecule: E3A/F49A: double mutant of IGF-1 combining point mutations E3A and F49A
- matrix synthesis in diseased human articular cartilage [1]: stimulated matrix synthesis in diseased human articular cartilage

Molecule: P39A: IGF-1 single alanine mutant
- Binding to IGFBP-1 ka (IGFBP-1 [2]): 3.1 ± 0.2 ×10^4 M^−1s^−1
- Binding to IGFBP-1 KD (IGFBP-1 [2]): wild-type kinetics
- Specificity Relative BP-1 / Relative BP-3 (IGFBP-1 [3]): 0.7
- Binding to IGFBP-3 ka (IGFBP-3 [4]): 2.7 ± 0.2 ×10^5 M^−1s^−1
- Binding to IGFBP-3 KD (IGFBP-3 [4]): wild-type kinetics

Molecule: V11A: IGF-1 single alanine mutant
- Binding to IGFBP-1 ka (IGFBP-1 [2]): 1.9 ± 0.1 ×10^4 M^−1s^−1
- Specificity Relative BP-1 / Relative BP-3 (IGFBP-1 [3]): 1.1
- Binding to IGFBP-3 ka (IGFBP-3 [4]): 3.1 ± 0.5 ×10^5 M^−1s^−1

Molecule: T4A: IGF-1 single alanine mutant
- IC50 (IGFBP-1 [5]): 0.0194 ± 0.0064 µM
- Binding to IGFBP-1 ka (IGFBP-1 [2]): 1.9 ± 0.2 ×10^4 M^−1s^−1
- Specificity Relative BP-1 / Relative BP-3 (IGFBP-1 [3]): 3.3
- IC50 (IGFBP-3 [6]): 0.0008 ± 2e-05 µM
- relative specificity (IGFBP-1 [7]): 2.2
- Binding to IGFBP-3 ka (IGFBP-3 [4]): 1.8 ± 0.6 ×10^5 M^−1s^−1

Molecule: ^125I-F49A: radiolabeled F49A IGF-1
- Half-life t1/2^α [8]: 3.84 ± 3.12 min
- Half-life t1/2^β [8]: 0.971 ± 0.336^+ hr
- Half-life t1/2^γ [8]: 8.97 ± 4.50 h
- clearance [8]: 427 ± 125*^+ ml/hr/kg
- steady-state distribution volume [8]: 3201 ± 488*^+ ml/kg

Molecule: CRAGPLQWLCEK-nh2 (CRAGPLQWLCEK-NH2; disulfide 1-10 (inferred)) [BP1-17]
- matrix synthesis, IGF-1 in combination with peptide ([1]; IGF-1 40 ng/ml, peptide 0.1 mg/ml): to some extent

Molecule: R36A: IGF-1 single alanine mutant
- Binding to IGFBP-1 ka (IGFBP-1 [2]): 4.0 ± 0.2 ×10^4 M^−1s^−1
- Binding to IGFBP-1 KD (IGFBP-1 [2]): wild-type kinetics
- Specificity Relative BP-1 / Relative BP-3 (IGFBP-1 [3]): 1.4
- Binding to IGFBP-3 ka (IGFBP-3 [4]): 4.0 ± 0.1 ×10^5 M^−1s^−1
- Binding to IGFBP-3 KD (IGFBP-3 [4]): wild-type kinetics

Molecule: G1S-A70V: IGF-1 double mutant, first and last amino acids changed; template for alanine scan
- Binding to IGFBP-1 ka (IGFBP-1 [2]): 3.2 ± 0.2 ×10^4 M^−1s^−1
- Specificity Relative BP-1 / Relative BP-3 (IGFBP-1 [3]): 0.7
- relative specificity (IGFBP-1 [7]): 1.0
- Binding to IGFBP-3 ka (IGFBP-3 [4]): 2.9 ± 0.8 ×10^5 M^−1s^−1

Molecule: CC(C)C[C@@H]1NC(=O)[C@H](CC(C)C)NC(=O)[C@H](CC(C)C)NC(=O)[C@H](CC(=O)O)NC(=O)[C@@H]2CCCN2C(=O)[C@H](CCCNC(=N)N)NC(=O)[C@H](C(C)C)NC(=O)[C@H](CC(C)C)NC(=O)[C@H](CCC(N)=O)NC(=O)[C@@H](NC(=O)CCC(=O)O)CSSC[C@@H](C(=O)N[C@@H](CCC(N)=O)C(N)=O)NC1=O [BP3-107] (Suc-CQLVRPDLLLCQ-NH2; disulfide 1-11)
- IC50 (IGFBP-3 [9]; inhibition of 40 nM IGFBP-3 binding to immobilized IGF-1): 100 µM

Molecule: F16A/F49A: double mutant of IGF-1, F16A and F49A
- IGFBP-3 ka (IGFBP-3 [4]; Table XV): 0.4 ± 0.1 ×10^5 M^−1
- IGFBP-3 kd (IGFBP-3 [4]; Table XV): 38.6 ± 2.7 ×10^−4 s^−1
- matrix synthesis in diseased human articular cartilage [1]: stimulated matrix synthesis in diseased human articular cartilage

Molecule: CSCC[C@H](NC(=O)[C@H](CC(N)=O)NC(=O)[C@@H]1CSSC[C@H](NC(=O)[C@@H](N)C(C)C)C(=O)N[C@@H](Cc2c[nH]c3ccccc23)C(=O)N2CCC[C@H]2C(=O)N[C@@H](C(C)C)C(=O)N[C@@H](C)C(=O)N[C@@H](CCC(=O)O)C(=O)N[C@@H](Cc2c[nH]c3ccccc23)C(=O)N[C@@H](Cc2ccc(O)cc2)C(=O)N[C@@H](CC(C)C)C(=O)N1)C(=O)N[C@@H](Cc1c[nH]c2ccccc12)C(=O)NCC(=O)O [BP3-16] (H-VCWPVAEWYLCNMWG-OH; disulfide 2-11; N-terminus and C-terminus assumed)
- IC50 (IGFBP-3 [9]): 30 µM
